Consider 1 molecule from patent US9395368B2, “Methods, agents and peptides for inducing an immune response to matrix metalloproteinase-2 expressing tumors” (New York University, priority 2010, dated 2016).

Holding throughout (type): cell-based, human
Test [1] has as its system IL-12p70 production by DCs. Kind of test: IL-12p70 production by poly(I:C)-matured DCs (CBA). The note with it: DCs stimulated with poly(I:C). The procedure:
(§1) Immature DCs were incubated with MMP-2 (0.5 μg/mL or 5 μg/mL) and poly(I:C)-matured 1 h later. IL-12 levels were measured 16 h later. (A) Results are represented as a percentage of IL-12p70 levels, measured by CBA, produced when DCs were incubated with poly(I:C) only (n=11). (B) For intracellular staining of IL-12p35 and IL-12p40 chains, Brefeldin A was added 4 h after poly(I:C) activation and cells were stained after an additional 12 h incubation. Numbers in the upper right quadrants are the percentages of each population for a representative donor (n=3). (C,D) Immature DCs were incubated with MMP-2 for 1 h (5 μg/mL) before poly(I:C) maturation. Intracellular staining of phosphorylated (Y701) STAT1 (P-STAT1) was performed 3 h later. A representative donor (C) and results for all 3 donors (D) are shown. […] (E) Immature DCs were incubated with MMP-2 and poly(I:C)-matured 1 h later. IFNβ levels were measured by ELISA 16 h later. Results are represented as a percentage of IFNβ levels produced when DCs were incubated with poly(I:C) only (n=9). (F,G) 10^6DCs/lane were treated with 0.1 μg MMP-2 or controls. Poly(I:C) was added 1 h later. IFNAR1 protein expression was detected the next day by Western blot analysis using a rabbit monoclonal antibody. A representative donor (F) and results for all 7 donors (G) are shown. (H) The rhIFNAR1 (5 μg; ≈110 kD) was incubated overnight with 0.3 μg MMP-2 before performing Western blot analysis for IFNAR1. The second band (around 90 kD) and the third band (25 kD) very likely correspond to either a degraded form of the protein still recognized by the antibody or a contaminant present in the commercial protein preparation and non-specifically recognized by the antibody. MMP-2 enzymatic activity was controlled (FIG. 13C-D). […]
(§2) Dendritic cell preparation and activation. […] Immature DCs were harvested on day 5 and matured using poly(I:C) at 5 μg/mL/10^6 DCs (Amersham) Secretion of IL-12p70, TNFα, IL-1β, IL-6, IL-8 and IL-10 was assessed on both immature and mature DCs using the Human Inflammatory Cytokine Cytometric Bead Array (BD Pharmingen).

A further test relates to OX40L expression on DCs. Kind of test: OX40L expression on DCs by surface staining. The following applies: immature and poly(I:C)-matured DCs, n=9, 24 h. The protocol:
Immature and poly(I:C)-matured DCs were incubated with active or HI MMP-2 (0.5 μg/mL or 5 μg/mL) for 24 h. MMP-2 enzymatic activity was controlled (FIG. 13C-D). OX40L expression was assessed by surface staining (A) Histogram plots are shown for representative donor HD1228. Isotype control is represented in tinted gray. (B) Mean fluorescent intensities are represented for all 9 donors tested. […] P values≦0.0167 (*) were considered statistically significant using a Bonferroni correction for 3 comparisons for each DC type. See also FIG. 12.
Dendritic cell preparation and activation. PBMCs were purified from healthy—(HD) or cord blood—(CB) donors and plated at 40×10^6 cells/10 mL/dish in complete IMDM with 5% PHS. Cells were allowed to adhere for 2 h at 37° C. Non-adherent cells were removed. The monocyte-enriched fraction was supplemented with 100 UI/mL rhGMCSF and 300 UI/mL rhIL-4 (R&D Systems) on days 0, 2 and 4. Immature DCs were harvested on day 5 and matured using poly(I:C) at 5 μg/mL/10^6 DCs (Amersham) Secretion of IL-12p70, TNFα, IL-1β, IL-6, IL-8 and IL-10 was assessed on both immature and mature DCs using the Human Inflammatory Cytokine Cytometric Bead Array (BD Pharmingen).

Test [2] deals with phosphorylated (Y701) STAT1. As to the kind of experiment: Intracellular staining of phosphorylated (Y701) STAT1 in DCs. The following applies: DCs preincubated 1 h (5 μg/mL) prior to poly(I:C), 3 h. The protocol:
as §1, with “(F,G) 10^6DCs/lane were treated with 0.1 μg MMP-2 or controls. Poly(I:C) was added 1 h later.” left out, “antibody.” for “antibody. A representative donor (F) and results for all 7 donors (G) are shown. (H) The rhIFNAR1 (5 μg; ≈110 kD) was incubated overnight with 0.3 μg MMP-2 before performing Western blot analysis for IFNAR1. The second band (around 90 kD) and the third band (25 kD) very likely correspond to either a degraded form of the protein still recognized by the antibody or a contaminant present in the commercial protein preparation and non-specifically recognized by the antibody. MMP-2 enzymatic activity was controlled (FIG. 13C-D).”
Intracellular staining T-bet and GATA-3 expression was measured on resting T cells. […] Cytokine production by T cells was also assessed by intracellular staining T cells were stimulated with 2 μM overlapping peptides. […]

The test system of test [3] is CD40, CD80, CD83, CD86, HLA-DR and CCR7 on DCs. Kind of test: Expression of maturation markers by DCs. The protocol:
Antibodies. Allophycocyanin-conjugated antibody to CCR-7 (150503) was purchased from R&D Systems. Unconjugated (10 μg/mL for blocking experiments) or phycoerythrin-conjugated antibody to OX40L (11C3.1) was from Biolegend. Blocking antibody to IL-4 (8F12; 10 μg/mL) was from Acris. Antibodies to human Vβ chains covering 70% of the repertoire (10Test Beta Mark; Beckman Coulter) were used according to the manufacturer's instructions. Fluorescein isothiocyanate-conjugated antibody to IL-12p35/IL-12p70 (B-T21) and IFNAR1 (EP899Y) were from Abcam. Phycoerythrine-conjugated antibodies to IL-12p40/IL-12p70 (C8.6), IL-10 (B-T10), CD203c (FR3-16A11) were from Miltenyi Biotec. Blocking antibody to HLA-DQ (SPVL3; 20 μg/mL) was from NeoMarkers. […]
as §2
We next evaluated whether DCs could be involved in the polarization of MMP-2-specific CD4^+ T cells.

B1: inactivated MMP-2: MMP-2 enzyme inactivated either by heating or by addition of the MMP-2 inhibitor III; mode not stated at the place (protein, listed as Homo sapiens)
chain: MEALMARGALTGPLRALCLLGCLLSHAAAAPSPIIKFPGDVAPKTDKELAVQYLNTFYGCPKESCNLFVLKDTLKKMQKFFGLPQTGDLDQNTIETMRKPRCGNPDVANYNFFPRKPKWDKNQITYRIIGYTPDLDPETVDDAFARAFQVWSDVTPLRFSRIHDGEADIMINFGRWEHGDGYPFDGKDGLLAHAFAPGTGVGGDSHFDDDELWTLGEGQVVRVKYGNADGEYCKFPFLFNGKEYNSCTDTGRSDGFLWCSTTYNFEKDGKYGFCPHEALFTMGGNAEGQPCKFPFRFQGTSYDSCTTEGRTDGYRWCGTTEDYDRDKKYGFCPETAMSTVGGNSEGAPCVFPFTFLGNKYESCTSAGRSDGKMWCATTANYDDDRKWGFCPDQGYSLFLVAAHEFGHAMGLEHSQDPGALMAPIYTYTKNFRLSQDDIKGIQELYGASPDIDLGTGPTPTLGPVTPEICKQDIVFDGIAQIRGEIFFFKDRFIWRTVTPRDKPMGPLLVATFWPELPEKIDAVYEAPQEEKAVFFAGNEYWIYSASTLERGYPKPLTSLGLPPDVQRVDAAFNWSKNKKTYIFAGDKFWRYNEVKKKMDPGFPKLIADAWNAIPDNLDAVVDLQGGGHSYFFKGAYYLKLENQSLKSVKFGSIKSDWLGC
modifications: heat or inhibitor inactivated
For the molecule B1, the “reduction in IL-12” value in test [1] is on record as “not observed”. In addition, the “OX40L expression on DCs” value in the test with OX40L expression on DCs was “significantly increased”. Also, in test [2], the STAT1 phosphorylation entry is “not”. Besides, in test [3], the “expression levels of maturation markers CD40, CD80, CD83, CD86, HLA-DR and CCR7” value is “not significantly affected”.
